Reference: EP1314779B1
Where two headings read alike, the source gives them in different places.

Key:
[1] = molecular target: proEGF on the surface of NCI-H292 cell membranes (human) (UniProt P01133); assay: flow cytometry on NCI-H292 cells, background staining with normal mouse IgG1
[2] = molecular target: proEGF on the surface of NCI-H292 cell membranes (human) (UniProt P01133); assay: as above; remark: listed apart in the source

Chain of UniProt P01133 (P01133 23-1207): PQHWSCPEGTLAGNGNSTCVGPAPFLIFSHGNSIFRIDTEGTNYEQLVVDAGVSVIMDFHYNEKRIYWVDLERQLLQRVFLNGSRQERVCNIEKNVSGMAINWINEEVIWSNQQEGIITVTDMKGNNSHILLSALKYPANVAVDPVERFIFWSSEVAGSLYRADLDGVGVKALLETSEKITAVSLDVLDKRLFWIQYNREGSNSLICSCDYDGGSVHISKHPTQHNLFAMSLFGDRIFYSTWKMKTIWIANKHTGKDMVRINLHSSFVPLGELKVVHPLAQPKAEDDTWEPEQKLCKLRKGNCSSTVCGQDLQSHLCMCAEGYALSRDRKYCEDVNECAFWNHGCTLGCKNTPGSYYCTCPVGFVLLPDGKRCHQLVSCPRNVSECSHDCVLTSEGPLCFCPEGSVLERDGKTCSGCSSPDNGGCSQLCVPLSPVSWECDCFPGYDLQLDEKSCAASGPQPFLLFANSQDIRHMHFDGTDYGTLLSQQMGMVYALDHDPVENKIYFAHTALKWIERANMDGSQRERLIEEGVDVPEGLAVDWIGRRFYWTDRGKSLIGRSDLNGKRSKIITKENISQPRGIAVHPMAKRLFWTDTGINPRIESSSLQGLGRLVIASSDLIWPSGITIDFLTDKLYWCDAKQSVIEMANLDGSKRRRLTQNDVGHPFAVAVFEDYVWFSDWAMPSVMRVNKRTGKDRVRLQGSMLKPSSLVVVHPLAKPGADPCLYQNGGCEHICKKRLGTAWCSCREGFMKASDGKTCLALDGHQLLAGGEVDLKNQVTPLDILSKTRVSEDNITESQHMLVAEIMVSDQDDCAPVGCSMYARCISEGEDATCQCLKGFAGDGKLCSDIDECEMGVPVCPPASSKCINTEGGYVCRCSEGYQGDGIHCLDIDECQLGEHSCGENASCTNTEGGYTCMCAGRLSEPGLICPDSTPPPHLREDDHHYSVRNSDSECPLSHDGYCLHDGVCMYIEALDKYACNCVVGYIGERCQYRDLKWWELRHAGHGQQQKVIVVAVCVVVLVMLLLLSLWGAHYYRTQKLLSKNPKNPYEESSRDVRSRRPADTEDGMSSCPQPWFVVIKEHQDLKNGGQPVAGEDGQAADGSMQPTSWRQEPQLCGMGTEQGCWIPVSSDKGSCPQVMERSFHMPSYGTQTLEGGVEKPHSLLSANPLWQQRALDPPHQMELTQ

## normal mouse IgG1 (produced by R&D Corp.) (antibody)
[1]
  average fluorescence intensity: 4.62
[2]
  average fluorescence intensity: 8.44
